Experimental data published in a protein production outcome set (Wang et al. 2014).

Assay: label from the status in PepcDB records

Sequence | protein production
MILAIDLGTSGAKAAIIDSAGAVHEQTFVPYSTTKLPNGGVEQDPMQWVSAARQAVTRLPRSYSVVSFTGQMQDLICLDRAGRPLGQALLYNDARAAAEAARLNTVVPEWKDITGNRQTATSTAAMWLRLMEQSD | failed
MSSSGTSITCEVGLQLIVPDRAPVPLVARLDYSVDDPYAIRAAFHVGDDEPVEWIFARELLTVGIIRETGEGDVRIWPSQDGKERMVNIALSSPFGQARFHAQVAPLSEFLHRTYELVPAGQESDYIDIDAEIAEHLS | not failed
MASFPPRVNEKEIVRSRTIGELLAPAAPFDKKCGGENWTVAFAPDGSYFAWSQGYRIVKLVPWSQCLKNFLLHGSKNVTNSSCLKLARQNSNGGQKNKPREHIIDCGDIVWSLAFGSSVPEKQSRCVNIEWHRFRFGQDQLLLATGLNNGRIKIWDVYTGKLLLNLVDHIEVVRDLTFAPDGSLLLVSASRDKTLRVWDLKDDGNMVKVLRGHQNWVYSCAFSPDCSMLCSVGASKAVFLWNMDKYTMIRRLEGHHHDVVACDFSPDGALLATASYDTRVYVWDPHIGDTLMEFGHLFPPPTPIFAGGANDRWVRAVSFSHDGLHVASLADDKMVRFWSIGDDCPVQVAPLSNGLCCAFSTDGSVLAAGTHDGSVYFWATPRQVSSLQHLCRMSIRRVMPTQEVQKLPVPSKMLEFLSYRV | failed
MLTDMQRDSASSSTVTTEQIVYGALPLTTINEPECRAIAITSINGSATLSGVSGPMGDQTDADLLIQLRGWADAIVVGAETARKENYGPVVLPHGIKNQRQKLGRCGLPKLTLLSKSLYFDFSSELFSPDLPSELSPLVITQQPANNSEQWDQRLQKLIDVGVEVIVAPTSTNPLKIAFDALHARRLKKISIEGGPSVYRQALSLGIVDRLHLTIAPNIICPVESPLFGKISDDSFTTRLVLEMLSSSPNGLIFSRYKVIRDTLGNPTQ | not failed
MVFKRRDRRSPLQVLWELIWPRGGWTRAFHYVKHRVRRLPDRPERIARGIGAGVFASFTPFYGIHFVIAAILARLINGNILAGLSGTFFGNPLTYVPIGVVSLQTGHFLLGTEFHEGAKQGLMRKFARAAGDLKDNFLALFTDRDADWQALGLFFDEVFFPYMIGGIAPGIVAGVVCYYLSLPVISTYQKRRRAKIKAKFEAIKKKAQADLPNPGNPG | failed
MALKATIYKATVNVADLDRNQFLDASLTLARHPSETQERMMLRLLAWLKYADERLQFTRGLCADDEPEAWLRNDHLGIDLWIELGLPDERRIKKACTQAAEVALFTYNSRAAQIWWQQNQSKCVQFANLSVWYLDDEQLAKVSAFADRTMTLQATIQDGVIWLSDDKNNLEVNLTAWQQPS | not failed
MDVHQLTEQALALLLQHTGADGGAILIEVDGEIRVAASQGIGSAHTLANNDRVRSALRTERRHRVQLPEDLVVDGMLAQFRPKEVIIDPVRHKEVVLGAVVLASGQGFSAEDRNRLDVFERGLALALHNALLYDRLQTLAALDPLTGALEHHHHHH | not failed
MMTTNTEYAPYRLELVNITKRYGGLVANDHISLKVAAGEIHAVLGENGAGKSTLMKIIYGAVKADEGEIVWNGRSVTVDSPAAARRLGIGMVYQHFSLFETLTVVENIALGLEEKFDLAHLAQRVVEVSEKYGLPIDPQRMVHSLSVGERQRVEIVRCLLQNPSLLILDEPTSVLTPQAVQVLFQTLRRLASEGVSILYISHKLNEIQSLCDTATILRGGQVTGTAIPKQETTASLAKMMIGRDLPAYQQHAYEGVQQPIFQVKQLSIPAQDMFGTSLKEINLSVNTGEILGIAGISGNGQAELLTALSGETTSLKESFWLDGQAIGHLHAGQRRKLGFGFVPEERLGRGAVPAMSLTENTLLTAFRMGMTRWGLVNYAKASAFAQACISKFGVKASGSDAAARSLSGGNLQKFIVGREIMQQPKVMVVAQPTWGVDVGASAFIRQTLIDLSRQGVAIVVISEELEELFEISDRIAVLAAGQLSPPQPVNETNAEQIGLLMSGLQRDSQPQEDVIRVSI | failed
MEDYGFEYSDEEQEEQDVDIENQYYNSKGMVETEPEEALSGFAEVVQMEPEKADWGFKALKQTVKIYYRLGKYKEMMEAYTEMLTYIKSAVTRNYSEKCINNIMDFVSGSASQNTGLLQEFYQTTLKALEEAKNERLWFKTNLKLCNIWFDIGEYRRMTKILKELHKSCQKEDGTDDQKKGSQLLEVYAIEIQIYTETKDNKKLKQLYHKALAIKSAIPHPRIMGIIRECGGKMHMAERQWEEAATDFFEAFKNYDEAGNQRRIQCLKYLVLANMLMESEVNPFDGQEAKPYKNDPEILAMTNLIAAYQRNEIIEFERILKSNRRTIMDDPFIRNYMEDLLKKVRTQVLLKLIKPYTKIGIPFISKELNVPETDVTELLVSLILDSRIDGHIDEMNRYLLRGDSGNGRKLHKAVDKWNSQLKSLSSNITSRVC | failed
MATQLVKGNTAVIIGAMYAGCDCYFGYPITPASEILHEASKYFPMVGRKFVQAESEEAAINMVYGAASTGKRVLCATSGPGMSLKQEGISFLAGSELPCVLVNVQRAGPGLGNIGPEQADYNQAVKGGGHGNYKNIVLAPNSVQEMCDCTAKAFELATKYKNPVIVLSDGVLGQMVEPLKFPEQAIKPEIDESWAVRGTKETRKNLVTSIFLDFKQLEEFNYALQEKYEIIKENEQDFEGYQLDDAEIILVSYGISSRISKTAVDVARKEGIKAGLFRPKTLFPFPEKELNKLAEKKCTFISVEMSNGQMAEDIKLATCCKRPIELVNRLGGNLIEVDQILAKIKEIAGGN | failed
MFDKIHYYYFNANYEKCLNLSEQFLKESPKFALEFATLSSYKLSLFQKALYYAQELFSLNPTSFNGLMLAKSYIENLRLDEALNLLQTLLTRKDDLEDELKLELAFIYKLSNKLEESEQIFKELLSKDMYNLNLWKNYAEIYFKHDFTKALNAHEHLCHFMQDLIDKLQKGIIAEQTNLNLVKLEDRLHSKTKENLTISKIEDFLTHQILPQKAYLLFKLFRISDSLELFQSLQEANQHHAQFWQNYAKVLEFNSNYQEAYHAYKKCLSLDSHATYQFDLAYLLMRMGVDDNFEEGKKYYESRLFYAHNETFSTYHYNESLKAFNKFGVDAFKNKEVLVFCEQGFGDTIMYARCLEKLCKIASKVLFAPQSAMYEMFKNQIKFLNQNDDIFKNVKVLKNLPTNFDYAIPICSLPFFIDIKLDEILRLKTPILPQKKPHNQRKKLGIFYATPNAENSDLLRNVKFEFLFDVLKDLDYEIISFQMQLKEELPKVIEDRSKLIKNWNDTLNYLYDIDCMLSIDSAIAHLSLAMDIPTIVLLHPRFDWRWGKFENPKSYFWPKAKCFIIKEQEETKRNLQKLIKDILN | failed
MSNYAAGLGKPGSGKRRIRDLLNQPDNRVCADCGASVPKWAKYQSIHLLKSCGVHRSLGTHILKVLSVTLDEWSDEEVDSMIETGGNASANSIYEAFVPDTCSKPGPDVNHDQRMRFIR | failed
MYTITDIAPTDAEFIALIAALDAWQETLYPAESNHLLDLSQLPPQTVIALAIRSPQGEAVGCGAIVLSEEGFGEMKRVYIDPQHRGQQLGEKLLAALEAKARQRDCHTLRLETGIHQHAAIALYTRNGYQTRCAFAPYQPDPLSVFMEKP | failed
MCLDACLTPDLADRDPVGRACDRAYVIDRPVFRSAMGNCRPSHFRGNGTHAAMNGESCAQRGKRTHKMQESEFFQLSGTTAVLLLVAFYGATFLMSLMIGQKKENVDGYMVSNSSVGFGLSAASMIATWIWAASFYASATSGFKYGLSGPIHYGFWGALMILFIYPFGKRFRQLAPKAHTLAEVIHARHGASSQMIMAVSNIVGSCISLMVNFTAAGALVSVLSPLSFIQGVLIAGLGVLSYTLWSGFRASVMTDFAQLVAMILAAVIIIPLIFFNAGGPDMLQANMWRLSSEQADFFSTTAILEQGAPYFVAVLAYAIGNQTIAQRLFAVREDLIKPTFLTATIGYGAVVIGLGMLGLLALFVGLEPVNGNMNNIIPQMASTYLPPVGIALFFILVVGSLSSTADSDLAALSAIVMTDIYAKNLAGGRPDPRRMLWWGRATMIVATMVGVIFASLRLDILVMLVFVGALWGAIVFPVIASFYWDRVSNSAFFWSVISAVVLFTIVRFELVPIEGAVAVFYEICAAIGGGVVIGLMSFAFFGRVTALTLGTLATLFLLPCFVGTLREYIVLLGSLTAYGVSTVVCVALSLRNQERFDFSLLAERVTSFHYEKARMMGAKPAAPAAQPQPARG | failed
MPQVKLKEGEPVDVAIRRFKRSCEKAGVLADVRKREFYEKPTQERKRKKAAAVKRYQKKLARESVRTTRLY | failed
RIVLRREFEGNGILDGIGKKIEEGDYDIVEYNSDKWYQIHKYYSGIDNSLKGVYINISTPPELLRGKIRYLDLEIDIAIRDSEIALLDEDELNKKSIYMPSS | failed
MPEAPGDTPLALDLLRRLRRALGAAGLPELEAWDLLAAATGWPRKALYGRLTSPLPQEALDRAEALLKRRLQGYPLQYLVGEVEFFGLPLRVEEGVLIPRPETEGLVELALGLPLPPAPRILDVGTGTGAIALALKRALPEAEVYATEVDPKALALARENAERLGLAVVFLPAPLTGGLKDLDLVVSNPPYLPEAYREKAPRELGYESPLALYAGPEGLSVARPLAEEARRSLKPGGYLLLELAPENVHLLARELREKGWKEVAVLPDLAGRDRYLRARRPPEEAEGEEGRLHRPHLPQSLHPHPDHPGPPPEEEEALGQVRLRGEAGVLRGHALLQKALPDPFPHLQEDGPGPGLPRVEEGGAGENLPRGPQALFRVKAGPDEEDAVLVPRPLQDGKPRALGPAEKPHALEAQEEGPPPGRLFQRHGALLRAQAHLPQVEPLAQAGEAFCELALLPLQHPGLDEEALDPPLLLGELLAHPGQGLPEPGGLLLQNLPGAP | failed
MPSIIDETVFGEPSRRLAVVYLCGALLLAGQQGYYVIIEGATPFYAGLLLSAGMALSGIAESLPKPRRRAAGVLRLTALVVLVSLLVILFVTPDLLTN | failed
MLNDKMYHGKGLRKGDLRLYHELYNLQVMKWPVNPLDVIIEKIKRREGNGVIADIGCGEARIAREFENVISLDLHPVGKDVIPCDMRRRIPLDDGSVDVAVCCLSMMVEDIAVPTKEINRILRNGGHWYIAEVRSRIPSVGLLERKFESLGFDVEHVDVSNAQFVLFVLQK | failed
MYPKKQACCPAMVMPYTLHAERTRVEVIPERGGLISRWQWQGHELLYLDRERFANPQFSVRGGIPLLFPICGNLPEDAFHDNGQTYHLKQHGFARDLPWQVLDQRQHVLKLGLQDTPATRQVYPFAFHLTLTYTLAADALAIALEVANPGDIPLPFSFGLHPYFAVADKHQLQFDLPIHAMVDQKTQQPLTFSGTFDWSAAELDWACRPLTGQVARVFDLQQQYCLTLRYDTAFTTLVFWTVQGKPYYCLEPWTAPRNALNTGVDLLHVPPQKHLTLGVEIAVAPL | failed
DLLDPETWQFIRDSARHFPPDSDRLPLAEQRALHAGLCRAFRAPLPPDVTLTDRTFGTRPCRLYEPAAPAGTVLFLHGGGFVLGGLDAFDDLCAEIAAGTGLRTVAVDYRLAPEYPHPEDFHDALRAAQAVAQAFPGPLVLMGEDAGGALSASFAHALRGRRALAGQVLVCPMLGGALDRVSALTHATAPMLSRQDVLRMGALRHGGREPAADPTADALRDTDFRGLPPTLIVTAQCDPLTDDGRAYRDAIRAAAGRARWIEEPGLVHGFLRARHRVPRAAASFARILQAASAMAHDR | failed
MELQHGQQRHIFEIRLFPEFDKAGMLKSILSVDRDVTATRQGERLLAEENEVLEMIAGNHPLPQTLEQICQMMESQQPGSMCSVLLLEEDGQSLRFAAGLSLPPAYRKLSERVAVGPSVGSCGTAAHWKRTIVVDDIQTSPLWAHALHKVQPFGLRACWSMPIFSSDRQLLGTLATYYREPRSPSQEELALAQRITRIIAIALQRDGHEKQLYRLATQDGLTELNNRRQFIELADREIERSRRHGSRMSVLMMDLDHFKDINDHYGHAVGDEVIRHFSQVCREVLRASDLCGRLGGEEFAAVLPDTGLDDARQVAERLRSLASSARLSAVSGSLGYTVSIGVAERHADETDIDEVLGRADKQLYQAKRDGRNRVSGAAPAHCG | failed
